Earlier results, collected in paper PMC11634773 (Nature, 2024).

Settings: humans, basal insulin

**Q.** With insulin glargine as the substance, how does the “c.v. for traditional needle-based subcutaneous pen injection” value read?
**A.** 33%
